The record followed here is patent US20250041326A1, “THERAPEUTIC AGENT FOR REFRACTORY VIRAL INFECTIONS” (TOKYO METROPOLITAN INSTITUTE OF MEDICAL SCIENCE, priority 2021, published 2025).

Assay [1] relates to HBV. Nature of the assay: rcDNA and cccDNA in HBV-infected primary human hepatocytes treated with IFNλ1 protein. The conditions noted are these: primary human hepatocytes persistently infected with HBV, 15 days treatment. Type of assay: cell-based. Here is the method:
Primary human hepatocytes persistently infected with HBV were treated with IFNλ1 protein for 15 days, and rcDNA and cccDNA were quantified.
Primary human hepatocytes persistently infected with HBV for 22 days or longer (PhoenixBio Co., Ltd., Japan) were cultured in a medium containing recombinant human IFN-lambda 1 (R&D systems) with medium replacement every 5 days, and the cells were collected after 15 days.
DNA in the cells were extracted by the sodium iodide method.
The cells were mixed with 200 μL of lysis buffer (10 mM EDTA, 500 mM 2-mercaptoethanol, 50 mM Tris-HCl, 75 mM KCl, 5% sarcosyl, 0.1 μg/μL protease K, pH 8.0), followed by heating at 55° C. for 20 minutes. After addition of 300 μL of a NaI solution (40 mM Tris-HCl, 20 mM EDTA, 7.6 M sodium iodide, coprecipitant), the mixture was allowed to stand at room temperature for 15 minutes. After addition of 600 μL of mixed alcohols (40% isopropanol, 60% 1-butanol), the mixture was cooled on ice for 15 minutes. The mixture was centrifuged at 4° C. at 15,000×g for 20 minutes to precipitate DNA. […]
were used, and an aliquot equivalent to 250 ng gDNA was measured according to the protocol of THUNDERBIRD Probe qPCR Mix (TOYOBO). […]
(§1) were used, and the Plasmid-Safe ATP-dependent DNase-treated product (equivalent to 50 ng total DNA) was measured according to the protocol of THUNDERBIRD Probe qPCR Mix (TOYOBO). […]

In assay [2] the test system is HBV. Nature of the assay: cccDNA in HepG2 cells stably expressing HBV. Type of assay: cell-based, human. The conditions noted are these: 5 days, IRF1 plasmid 0.5 μg/well, IFN-lambda 1 100 ng/mL, or supernatant every day. Here is the method: HepG2 cells made susceptible to HBV infection (HepG2-hNTCP-30 cells) were transfected with a 1.3-fold longer gene of HBV genotype C to prepare cells stably expressing HBV.
The primary human hepatocyte-derived human IRF1 gene (GenBank Accession No. NM_002198.3) was cloned into a pCI-neo Mammalian Expression Vector (Promega) to construct an IRF1 plasmid.
Using Lipofectamine 3000 (Invitrogen), the IRF1 plasmid (0.5 μg/well) was introduced by reverse transfection into HepG2 cells stably expressing HBV (2×10^5 cells/well, 48-well plate).
As an empty plasmid, a pCI-neo Mammalian Expression Vector was used.
Using the culture supernatant of the HepG2 cells stably expressing HBV (2×10^5 cells/well, 48-well plate) transfected with the IRF1 plasmid or the empty plasmid (0.5 μg/well), untransfected HepG2 cells stably expressing HBV (2×10^5 cells/well, 48-well plate) were treated every day for 5 days. Likewise, HepG2 cells stably expressing HBV were treated for 5 days with a medium containing recombinant human IFN-lambda 1 (100 ng/mL, R&D systems).
DNA in the cells were extracted by the sodium iodide method. […]
as §1

B1: IFNλ1 protein: recombinant human IFN-lambda 1 (R&D systems) (protein, UniProt Q8IU54 20-200, looked up)
Interferon lambda-1: GPVPTSKPTTTGKGCHIGRFKSLSPQELASFKKARDALEESLKLKNWSCSSPVFPGNWDLRLLQVRERPVALEAELALTLKVLEAAAGPALEDVLDQPLHTLHHILSQLQACIQPQPTAGPRPRGRLHHWLHRLQEAPKKESAGCLEASVTFNLFRLLTRDLKYVADGNLCLRTSTHPEST
Consider B1, for which, in assay [1], the cccDNA levels entry was “reduced in a manner dependent on the amount” and the rcDNA levels result is reported as “reduced in a manner dependent on the amount”. Moreover, the cccDNA entry in assay [2] was “not reduced”.
